Measurements as given in US20260070976A1 (Alector, published 2026).

Tests used:
recombinant human PILRB = recombinant human PILRB (human, UniProt Q9UKJ0 20-191); assay: SPR, Carterra LSA, steady-state fit
Protocol: (§1) Binding kinetics of human anti-PILRA-IgG4 antibodies were evaluated by surface plasmon resonance (SPR) using a Carterra LSA instrument (Carterra, Salt Lake City, UT). Antibodies were immobilized in duplicate arrays onto an HC30M sensor chip (Carterra) by amine coupling according to the manufacturer's protocol. After priming the immobilized antibodies with HBS-EP+ (Teknova, Hollister, CA, #8022) running buffer with 0.5 mg/mL BSA (MP Biomedicals LLC, #820451), the immobilized antibodies were tested for their ability to bind to recombinant human PILRA (SEQ ID NO:1) and cynomolgus PILRA (SEQ ID NO:120) and to human PILRB (SEQ ID NO:105) and cynomolgus PILRB (SEQ ID NO:121).
(§2) For binding kinetics analysis, human and cynomolgus PILRA and PILRB analytes were diluted in running buffer to 440 to 470 nM, and diluted 3-fold serially five times, to 1.8 to 1.9 nM, and injected for five minutes over the entire chip using the single channel flow cell to measure association of binding to the immobilized antibodies. Dissociation of the analytes was measured for five minutes, followed by regeneration of the chip with two 30-second injections of 10 mM glycine pH 2.0.
For the human PILRB interactions, the binding was too weak and heterogenous for kinetic constants to be calculated in this assay. Therefore, steady-state affinities were estimated based on the binding level of each analyte concentration at the end of the injections.

[1] = biological target: T1, recombinant cynomolgus PILRA (SEQ ID NO:120) (cynomolgus monkey); assay: SPR, Carterra LSA, antibody amine-coupled, kinetic fit
T1 construct: also called cyno PILRA
T1 sequence (chain, as listed by the source limits assumed): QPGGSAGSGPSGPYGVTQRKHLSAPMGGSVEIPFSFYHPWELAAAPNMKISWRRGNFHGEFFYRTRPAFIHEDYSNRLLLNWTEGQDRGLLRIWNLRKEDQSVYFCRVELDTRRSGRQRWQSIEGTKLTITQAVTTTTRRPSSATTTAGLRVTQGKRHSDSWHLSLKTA
Protocol: as §1, §2

recombinant human PILRA = recombinant human PILRA (human, UniProt Q9UKJ1 20-197); assay: as above
Sequence of recombinant human PILRA (Q9UKJ1 20-197 limits assumed): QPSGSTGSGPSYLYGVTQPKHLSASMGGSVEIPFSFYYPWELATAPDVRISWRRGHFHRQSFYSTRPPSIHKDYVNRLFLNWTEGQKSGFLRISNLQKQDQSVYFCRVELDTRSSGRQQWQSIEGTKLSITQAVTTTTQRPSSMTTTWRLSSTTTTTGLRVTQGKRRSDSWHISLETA
Protocol: as §1, §2

Sequence of recombinant human PILRB (Q9UKJ0 20-191 limits assumed): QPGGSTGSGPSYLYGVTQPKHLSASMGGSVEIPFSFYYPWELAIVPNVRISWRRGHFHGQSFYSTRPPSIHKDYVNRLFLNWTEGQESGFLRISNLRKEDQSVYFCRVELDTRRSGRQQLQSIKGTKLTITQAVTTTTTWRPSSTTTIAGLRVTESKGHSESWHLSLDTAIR

Row | Kd (recombinant human PILRB) [nM] | Kd [1] [nM] | Kd (recombinant human PILRA) [nM] | Binder
1 | 138 | 0.2 | 12 | X4 (antibody, human IgG4, V domains shown) VH: QVQLVQSGAEVKKPGSSVKVSCKASGYNFLNYDVNWVRQAPGQGLEWMGGIIPIFGTANYAQKFQGRVTITADESTSTAYMELSSLRSEDTAVYYCATGVGAGWFDPWGQGTLVTVSS VL: DIVMTQSPDSLAVSLGERATINCKSSQSVYFSPNNKNYLAWYQQKPGQPPKLLIYWASTRESGVPDRFSGSGSGTDFTLTISSLQAEDVAVYYCQQYFEEPYTFGQGTRLEIK
2 | 211 | 0.3 | 7 | X25 (antibody, human IgG4, V domains shown) VH: QVQLVQSGAEVKKPGSSVKVSCKASGYNFLNYDVNWVRQAPGQGLEWMGGIIPIFGTANYAQKFQGRVTITADESTSTAYMELSSLRSEDTAVYYCATAVGAGWFDPWGQGTLVTVSS VL: not shown
3 | 33 | 0.3 | 3.8 | X28 (antibody, human IgG4, V domains shown) VH: QVQLVQSGAEVKKPGSSVKVSCKASGYNFLNYDVNWVRQAPGQGLEWMGGIIPIFGTANYAQKFQGRVTITADESTSTAYMELSSLRSEDTAVYYCATAVGAGWFDPWGQGTLVTVSS VL: not shown
4 | 35 | 0.3 | 3.9 | X23 (antibody, human IgG4, V domains shown) VH: QVQLVQSGAEVKKPGSSVKVSCKASGYNFLHYDVNWVRQAPGQGLEWMGGIIPIFGTANYAQKFQGRVTITADESTSTAYMELSSLRSEDTAVYYCATGVGAGWFDPWGQGTLVTVSS VL: not shown
5 | 43 | 0.1 | 3.3 | X30 (antibody, human IgG4, V domains shown) VH: QVQLVQSGAEVKKPGSSVKVSCKASGYNFLNYDVNWVRQAPGQGLEWMGGIIPIFGTANYAQKFQGRVTITADESTSTAYMELSSLRSEDTAVYYCATGVGAGWFDPWGQGTLVTVSS VL: DIVMTQSPDSLAVSLGERATINCKSSQSVYFDVNNKNYLAWYQQKPGQPPKLLIYWASTRESGVPDRFSGSGSGTDFTLTISSLQAEDVAVYYCQQYYEEPYTFGQGTRLEIK
6 | 16 | 0.2 | 1.7 | X24 (antibody, human IgG4, V domains shown) VH: QVQLVQSGAEVKKPGSSVKVSCKASGYNFLHYDVNWVRQAPGQGLEWMGGIIPIFGTANYAQKFQGRVTITADESTSTAYMELSSLRSEDTAVYYCATGVGAGWFDPWGQGTLVTVSS VL: not shown
7 | 2 | 0.1 | 0.1 | X15 (antibody, human IgG4, V domains shown) VH: QVQLVQSGAEVKKPGSSVKVSCKASGYNFLHYDVNWVRQAPGQGLEWMGGIIPIFGTANYAQKFQGRVTITADESTSTAYMELSSLRSEDTAVYYCATAVGAGWFDTWGQGTLVTVSS VL: DIVMTQSPDSLAVSLGERATINCKSSQSVFFDVNNKNYLAWYQQKPGQPPKLLIYWASTRESGVPDRFSGSGSGTDFTLTISSLQAEDVAVYYCQQYFEEPYTFGQGTRLEIK
8 | 39 | 0.1 | 2.8 | X9 (antibody, human IgG4, V domains shown) VH: QVQLVQSGAEVKKPGSSVKVSCKASGYNFLNYDVNWVRQAPGQGLEWMGGIIPIFGTANYAQKFQGRVTITADESTSTAYMELSSLRSEDTAVYYCATGVGAGWFDPWGQGTLVTVSS VL: DIVMTQSPDSLAVSLGERATINCKSSQSVFFDVNNKNYLAWYQQKPGQPPKLLIYWASTRESGVPDRFSGSGSGTDFTLTISSLQAEDVAVYYCQQYYEEPYTFGQGTRLEIK
9 | 68 | 0.3 | 3.2 | X10 (antibody, human IgG4, V domains shown) VH: QVQLVQSGAEVKKPGSSVKVSCKASGYNFLNYDVNWVRQAPGQGLEWMGGIIPIFGTANYAQKFQGRVTITADESTSTAYMELSSLRSEDTAVYYCATGVGAGWFDPWGQGTLVTVSS VL: DIVMTQSPDSLAVSLGERATINCKSSQSVFFDENNKNYLAWYQQKPGQPPKLLIYWASTRESGVPDRFSGSGSGTDFTLTISSLQAEDVAVYYCQQYYEEPYTFGQGTRLEIK
10 | 199 | 0.3 | 8.1 | X26 (antibody, human IgG4, V domains shown) VH: QVQLVQSGAEVKKPGSSVKVSCKASGYNFLNYDVNWVRQAPGQGLEWMGGIIPIFGTANYAQKFQGRVTITADESTSTAYMELSSLRSEDTAVYYCATAVGAGWFDPWGQGTLVTVSS VL: not shown
11 | 38 | 0.1 | 2.2 | X31 (antibody, human IgG4, V domains shown) VH: QVQLVQSGAEVKKPGSSVKVSCKASGYNFLNYDVNWVRQAPGQGLEWMGGIIPIFGTANYAQKFQGRVTITADESTSTAYMELSSLRSEDTAVYYCATGVGAGWFDPWGQGTLVTVSS VL: not shown
12 | 2 | 0.1 | 0.1 | X32 (antibody, human IgG4, V domains shown) VH: QVQLVQSGAEVKKPGSSVKVSCKASGYNFLHYDVNWVRQAPGQGLEWMGGIIPIFGTANYAQKFQGRVTITADESTSTAYMELSSLRSEDTAVYYCATAVGAGWFDPWGQGTLVTVSS VL: DIVMTQSPDSLAVSLGERATINCKSSQSVFFDVNNKNYLAWYQQKPGQPPKLLIYWASTRESGVPDRFSGSGSGTDFTLTISSLQAEDVAVYYCQQYYEEPYTFGQGTRLEIK
13 | 35 | 0.1 | 2.4 | X5 (antibody, human IgG4, V domains shown) VH: QVQLVQSGAEVKKPGSSVKVSCKASGYNFLNYDVNWVRQAPGQGLEWMGGIIPIFGTANYAQKFQGRVTITADESTSTAYMELSSLRSEDTAVYYCATGVGAGWFDPWGQGTLVTVSS VL: DIVMTQSPDSLAVSLGERATINCKSSQSVFFDVNNKNYLAWYQQKPGQPPKLLIYWASTRESGVPDRFSGSGSGTDFTLTISSLQAEDVAVYYCQQYFEEPYTFGQGTRLEIK
14 | 2 | 0.1 | 0.4 | X17 (antibody, human IgG4, V domains shown) VH: QVQLVQSGAEVKKPGSSVKVSCKASGYNFLHYDVNWVRQAPGQGLEWMGGIIPIFGTANYAQKFQGRVTITADESTSTAYMELSSLRSEDTAVYYCATAVGAGWFDTWGQGTLVTVSS VL: DIVMTQSPDSLAVSLGERATINCKSSQSVFFDENNKNYLAWYQQKPGQPPKLLIYWASTRESGVPDRFSGSGSGTDFTLTISSLQAEDVAVYYCQQYFEEPYTFGQGTRLEIK
15 | 2 | 0.1 | 0.3 | X19 (antibody, human IgG4, V domains shown) VH: QVQLVQSGAEVKKPGSSVKVSCKASGYNFLHYDVNWVRQAPGQGLEWMGGIIPIFGTANYAQKFQGRVTITADESTSTAYMELSSLRSEDTAVYYCATAVGAGWFDPWGQGTLVTVSS VL: DIVMTQSPDSLAVSLGERATINCKSSQSVFFDENNKNYLAWYQQKPGQPPKLLIYWASTRESGVPDRFSGSGSGTDFTLTISSLQAEDVAVYYCQQYYEEPYTFGQGTRLEIK
16 | 35 | 0.1 | 3.1 | X6 (antibody, human IgG4, V domains shown) VH: QVQLVQSGAEVKKPGSSVKVSCKASGYNFLNYDVNWVRQAPGQGLEWMGGIIPIFGTANYAQKFQGRVTITADESTSTAYMELSSLRSEDTAVYYCATGVGAGWFDPWGQGTLVTVSS VL: DIVMTQSPDSLAVSLGERATINCKSSQSVYFDVNNKNYLAWYQQKPGQPPKLLIYWASTRESGVPDRFSGSGSGTDFTLTISSLQAEDVAVYYCQQYFEEPYTFGQGTRLEIK
17 | 2 | 0.1 | 0.6 | X33 (antibody, human IgG4, V domains shown) VH: QVQLVQSGAEVKKPGSSVKVSCKASGYNFLHYDVNWVRQAPGQGLEWMGGIIPIFGTANYAQKFQGRVTITADESTSTAYMELSSLRSEDTAVYYCATAVGAGWFDPWGQGTLVTVSS VL: not shown
18 | 87 | 0.5 | 13 | X27 (antibody, human IgG4, V domains shown) VH: QVQLVQSGAEVKKPGSSVKVSCKASGYNFLNYDVNWVRQAPGQGLEWMGGIIPIFGTANYAQKFQGRVTITADESTSTAYMELSSLRSEDTAVYYCATAVGAGWFDPWGQGTLVTVSS VL: not shown
